# Data taken from PMC11040377 (2024).
# B1: Lag3 (lymphocyte-activation gene 3), on transfected SH-SY5Y cells (receptor)
# chain: GPGKELPVVWAQEGAPVHLPCSLKSPNLDPNFLRRGGVIWQHQPDSGQPTPIPALDLHQGMPSPRQPAPGRYTVLSVAPGGLRSGRQPLHPHVQLEERGLQRGDFSLWLRPALRTDAGEYHATVRLPNRALSCSLRLRVGQASMIASPSGVLKLSDWVLLNCSFSRPDRPVSVHWFQGQNRVPVYNSPRHFLAETFLLLPQVSPLDSGTWGCVLTYRDGFNVSITYNLKVLGLEPVAPLTVYAAEGSRVELPCHLPPGVGTPSLLIAKWTPPGGGPELPVAGKSGNFTLHLEAVGLAQAGTYTCSIHLQGQQLNATVTLAVITVTPKSFGLPGSRGKLLCEVTPASGKERFVWRPLNNLSRSCPGPVLEIQEARLLAERWQCQLYEGQRLLGATVYAAESSSGAHSARRISGDLKGGHLVLVLILGALSLFLLVAGAFGFHWWRKQLLLRRFSALEHGIQPFPAQRKIEELERELETEMGQEPEPEPEPQLEPEPRQL
# Molecular target: Tau-biotin monomer (human, UniProt P10636-8 1-441, biotin (Sulfo-NHS-LC-Biotin))
binder,measurement,value
B1,Kd,> 2 µM
